Results: the RNAGym collection of RNA variant scans (doi:10.1073/pnas.2313332121)

B1: TPR t1 (parent)
chain: GACCAAUCUGCCCUCAGAGCUCGAGAACAUCUUCGGAUGCAGAGGAGGCAGGCUUCGGUGGCGCGAUAGCGCCAACGUCCUCAACCUCCAAUGCAUCCCACCACAUGAUGAUGCCUGAAGAGCCUUGGUUUUUUG

Variants of: B1
Assay: polymerase ribozyme fitness, log enrichment relative to wild type (log ratio); higher = more active; in vitro selection for triplet polymerase activity
How it was run: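 After PCR construction and transcription, each subunit's mutant library from a heterodimeric triplet polymerase ribozyme was annealed with a biotinylated primer, the partner subunit and triplets. Incubation was frozen, at −7 °C, and extended constructs were gel-excised, bound to streptavidin beads and amplified by RT-PCR, in one selection round done in triplicate. Fitness is the logarithm of a genotype's enrichment divided by that of the wild type, from inverse-variance-weighted replicate averages of Illumina-sequenced inputs and outputs. The base of the logarithm is 2, and genotypes needed ≥10 input reads and ≥1 read per output.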

Point of comparison: U7A C86G A90C, “polymerase ribozyme fitness (log ratio)” value -1.43. Against it:
- C20A C56A C76A C82U — lower, -4.8
- C11G A95U U129C — higher, -1.01
- U9C A46U C53U A84C C88U — higher, -1.01
- A24G G42U U59G C88G — lower, -5.92
- U78C C97U A103U C123G — lower, -4.59
- A5C G39A G69A G120C — lower, -4.21
- U9A G113A U130G — higher, -0.107
- C13U A26U C40U — lower, -2.81
- G61U C104A — lower, -1.7
- C8A C22U G61A U129G — lower, -4.98
- C34A A41U G60C C99U C104A U116C U125A — lower, -7.43
- A2U A5G U9G A41C — lower, -2.01
- C4A G36C C104U A119G A121U G128U U129A — higher, 0.665
- C4A U7A G71A — lower, -1.76
- C12U C70U C94U — higher, 0.056
- A29U A84G U87G — lower, -2.37
- U78C U116G G117A — lower, -2.14
- U30G C34G G35C A41U C53U C76U C124G — lower, -8.38
- G52U G61A G110U — lower, -2
- G39U C53G U87A A90G — higher, -0.306
- A29C C73U U96A — lower, -5.54
- G51A C124A — within 0.2 log units, -1.48
- A46G C79A A91U A105U C124A U125A — lower, -6.73
- C56U G110U U116G G117U — lower, -6.29
- C72U C85A — lower, -1.82
- C72A G113C — lower, -2.03
- C8U A18U U116C — lower, -2.04
- A16U C20A C62U A83C G120A — lower, -6.31
- G47C C94U — lower, -1.71
- C13U G47A C82G — lower, -2.07
- A6U G42C A74C C79G C123G U125A — lower, -2.83
- C13G G45U C72U C89A G120U U130A — lower, -2.6
- G57C G107C — lower, -6.59
- C80U C114U — lower, -2.33
- G57U G107U — lower, -5.11
- C4U G44U C72A — higher, -0.827
- C20A C53A C79U G110U — lower, -4.5
- C11A G45C C62U — lower, -2.56
- U9C A16U C88A A95C A111U — lower, -5.45
- G48A U112A — higher, 0.917
- G45A G113A C115U — lower, -3.5
- G69C A83G G120C — within 0.2 log units, -1.54
- A27G C40U — lower, -2.39
- A46G A66G — within 0.2 log units, -1.48
- G47U G71C C104A — lower, -4.32
- C13G G58U G60C G117U C123A — lower, -2.6
- G51A G69U C88U G93A U109G U133C — lower, -4.55
- C99U G120U — lower, -3.34
- G69U A119G G122C — lower, -2.33
- G39A G58A A91U — lower, -2.28
- G60U G71C — lower, -3.38
- A27U U55G C56A G69C — lower, -6.66
- A41C G52A A74U C88U — lower, -2.04
- C3U C85U — the same, -1.43
- A24G G48U G110A U132A — lower, -3.72
- C11G A24G C40U G120U U132G — lower, -2.9
- C15U G93U — lower, -2.38
- U54G U78A G93U — lower, -4.13
- A74G G77U C98U C104A — lower, -2.74
- C11A G17U U112A U131G — lower, -3.56
- A68U G69A — lower, -6.04
- G48U G122A — within 0.2 log units, -1.27
- G48C G57A G63A G93U G127A — lower, -4.97
- A18U U92A — lower, -4.67
- G17A A84C U87A U96G — lower, -4.16
- U9G A24G C73U — higher, -0.355
- G42U G71A A100U — lower, -4.8
- C11A G113U G122U — lower, -2.8
- U7C G48U A91U G113U G117A — lower, -7.92
- A2C C11U C114G — lower, -4.14
- C8U A37G G52A C56U — higher, -0.753
- U38A A83C U92C C124A — within 0.2 log units, -1.34
- A41U A43C C49U A50G U129C — lower, -4.69
- C8A A41U G57A C104A — lower, -5.75
- C80U A83G — higher, -1.23
- A24G G52A C115U — lower, -2.59
- U78C U87G C88A G113A G127A — lower, -3.89
- A18U U38G C56U C114A G135U — lower, -2.6
- G69U U87C — higher, 0.421
- A5G G71U A111C G127A — within 0.2 log units, -1.59
- U9C C12G C13G A50C C70U C76A U78A C85U — lower, -2.55
- A37C C73A A118U U125G — higher, -0.0605
- G63A C79U A95U C101U — higher, -0.75
- C22U A37U C56U — lower, -5.01
- G61U C72A — higher, 0.45
- C13G G47A C72U G110C — lower, -7.11
- C4U G17A — lower, -2.72
- C64U U96A — higher, -1.23
- G39A C62A C72G — lower, -4.2
- C13A U38A A46U C70G A121U — lower, -5.9
- C34A G45A C86A — lower, -5.49
- C8G C20U — higher, -1.02
- A18G C56G G58C C114A — lower, -3.34
- G48U G93A G120A — higher, -0.388
- G60C U81C — higher, -0.172
- G48C C114A — lower, -1.76
- G61A C115U — higher, -0.993
- A29C A75G C124G U129C — higher, -1.16
- A29U C73G — lower, -1.92
- A37U C70A U109A — lower, -6.47
- C73U U87A A91U U112A U116G — lower, -4.55
- C13U C49A G71A — higher, -0.504
- G58C C94A — higher, -0.207
- A6U C8G G60A U130C — higher, -0.0856
- G93U U96G U106A G127C — lower, -3.43
- G60U G127A — higher, -0.768
- U33A C97A C123G — lower, -4.21
- U33C G42C C99G A105G G113C U116A C123G C124A U132C — lower, -7.71
- A5C A27U C73U C123U G128A — lower, -3.34
- U7A G10U G93A — higher, -0.792
- C8U G48A — higher, -0.239
- G10U C13G C72U — higher, -0.677
- A29U C89U — lower, -2.05
- C115A A118U U131A — lower, -1.85
- C20A A41U G61A C102A — lower, -6.03
- C13U C86G — higher, -0.454
- G35U G63U C104G — lower, -7.12
- A66C G120U U132C — higher, -0.962
- C56U C101A C114A — lower, -2.61
- C3G U78A — lower, -2.46
- C64U G77U — higher, -0.465
- C72A U125C — within 0.2 log units, -1.51
- G17A A83G — lower, -3.95
- U78C G93C U96C C115A — higher, -1.13
- U7A A16C — higher, -0.994
- G17U G45C C62U — lower, -4.56
- G42U C56U C115G — lower, -2.13
- C15U U54A A105U U112C — lower, -2.79
- C12U A18G A41U G47C C72U U109G C124G — lower, -3.69
- U32A G48C — lower, -5.23
- C8A U33G A37U — lower, -6.73
- C11G C89A — within 0.2 log units, -1.26
- G52U C64U U132A — higher, -1.1
- C4G C8G — higher, -0.396
- A26G C34A G44A C124U — lower, -3.54
- G36A G61C G93C G110A — lower, -6.04
- A118G G122A U129A — within 0.2 log units, -1.35
- G17C U87A — lower, -3.72
- U21A A41U G60A U96A — lower, -4.01
- A6U C53A C62A C97U G113A — lower, -3.13
- C15U A84C — lower, -1.68
- C53A C79U C86U — higher, -0.479
- G47U G52A C72U — lower, -2.43
- C12A C53A A108G — lower, -2.7
- G57C A121C — higher, 1.63
- C49A U59A A74U C114U — lower, -2.86
- C3A C8G A74U A95C G117A G128U — higher, -0.293
- C28U C79G — lower, -4.3
- G71U C98U — lower, -2.33
- C88A U96C G110C U132C — lower, -4.37
- U9A A50U C62G — lower, -2.77
- C8A G47A C49G C70A U78C — lower, -3.7
- G42A U59G C73U U112G C123A — lower, -4.46
- G36U G44U — lower, -2.24
- A18C G69C U133A — lower, -4.77
- C64U U81G — lower, -4.28
- C73G — higher, -0.606
- C13G C72G C102G G113A G128A — lower, -5.75
- C12U C53U — higher, 0.906
- G113A C124A — within 0.2 log units, -1.44
- A91G G113A — lower, -1.95
- C53A C62U C97U G120C — higher, 0.732
- U7A G39U G69A — lower, -3.24
- A26U C123A — lower, -2.9
- C49G G51A G61C C94U — lower, -3.22
- G36U G77A G113U — lower, -3.33
